In one assay the target is T1, Human IL-17A蛋白 (Human, UniProt Q16552 24-155).
T1 sequence (looked up): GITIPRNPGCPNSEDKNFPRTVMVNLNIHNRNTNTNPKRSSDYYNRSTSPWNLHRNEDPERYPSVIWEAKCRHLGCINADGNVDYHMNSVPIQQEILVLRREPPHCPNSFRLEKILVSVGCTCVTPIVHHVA
As to the kind of experiment: cell-based or functional assay.

Assay [1] deals with T2, Human IL-17A重组蛋白 (IL-17A-His) (Human, UniProt Q16552 24-155, biotinylated (Biotin-IL-17A-His) in the ELISA of paragraph 259; site not stated).
T2 construct: Recombinant antigen expressed in E. coli BL21 from pET28a, purified on a nickel column; also called IL-17A抗原蛋白; IL-17抗原
T2 sequence: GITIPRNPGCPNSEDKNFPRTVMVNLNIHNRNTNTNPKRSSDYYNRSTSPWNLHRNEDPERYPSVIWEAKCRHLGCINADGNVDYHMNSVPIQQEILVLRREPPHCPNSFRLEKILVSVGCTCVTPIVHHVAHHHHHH
As to the kind of experiment: ELISA: antibody coated at 2 ug/mL, Biotin-IL-17A-His titrated from 10 ug/mL (5-fold, 7 points), HRP-Streptavidin. In general terms: In an ELISA, binding on a coated surface is turned into a signal by an enzyme label.

B1: Ixekizumab (antibody, human IgG4 S228P, kappa, V domains shown)
VH: QVQLVQSGAEVKKPGSSVKVSCKASGYSFTDYHIHWVRQAPGQGLEWMGVINPMYGTTDYNQRFKGRVTITADESTSTAYMELSSLRSEDTAVYYCARYDYFTGTGVYWGQGTLVTVSS
VL: DIVMTQTPLSLSVTPGQPASISCRSSRSLVHSRGNTYLHWYLQKPGQSPQLLIYKVSNRFIGVPDRFSGSGSGTDFTLKISRVEAEDVGVYYCSQSTHLPFTFGQGTKLEIKR
notes: Made in-house: variable regions cloned into pcDNA3.4-hIgG4 and pcDNA3.4-hIgKc, expressed in 293F cells, purified on Protein A; also called 阳性对照抗体; 阳性抗体
The EC50 is the concentration needed to bring the measured effect to its halfway point. Read a low EC50 as higher potency in that assay. For B1, the “IC50, luciferase activity of 293F-IL-17RA-IL-17Rc-ACT1-NFκB-Luc reporter cells” value in the assay with Human IL-17A蛋白 came to 1.36 µg/mL. The same molecule showed an EC50 in assay [1] of 10.1 µg/mL.
